Assay results taken from patent publication US12686710B2, “Anti-HER2 polypeptides derivatives as new diagnostic molecular probes” (BRACCO IMAGING S.P.A., priority 2019, dated 2026).

What was measured:
[1] = system: human (HSA), murine (MSA) and bovine (BSA) serum albumin; test: ELISA control of binding to serum albumins
Excerpt: (§1) To selectively target HER2 receptor, a library of affitins has been enriched against the target by several consecutive rounds of screening (up to 6 rounds). The enrichment of anti-HER2 afftins has been followed after any selection round by ELISA assay monitoring, also controlling the condition of negligible binding to human (HSA), murine (MSA) and bovine (BSA) serum albumin.

[2] = target: HER2 (Homo sapiens, UniProt P04626); test: ELISA monitoring of affitin selection against HER2; format: binding; details: end of selection process
Excerpt: as §1

[3] = system: SK-BR-3 breast adenocarcinoma cell line (overexpressing HER2 receptor); test: Cell internalization assay with Pe38 fusion, cell viability; format: cell-based, human; details: Aff03 tested as fusion Aff04-0-Pe38 (SEQ ID NO: 5), different concentrations
Procedure: (§2) The cells internalization of Aff03 was evaluated using a dedicated cell-based assay. […] Such truncated form (Pe38) needs to be internalized by means of the Aff03 to keep its cytotoxic activity.
(§3) To test internalization, then, the viability of the breast adenocarcinoma cell line SK-BR-3 (overexpressing HER2 receptor) and of the breast cancer cell line MCF-7 (low expressing HER2 receptor) was measured at different nanofitin concentrations.

[4] = system: MCF-7 breast cancer cell line (low expressing HER2 receptor); test: as above; format: cell-based, human; details: Aff03 tested as fusion Aff04-0-Pe38 (SEQ ID NO: 5), different concentrations
Procedure: as §2, §3

B1: Aff03: 64 aac affitin of SEQ ID NO: 1, HER2-binding polypeptide (protein, listed as Sulfolobus acidocaldarius)
chain: VKVKFGHMGEEKEVDTSKIYAVNRAGKFVHFAYDDNGKFGSGSVPEKDAPKELLDMLARAEREK
Question: Which binding to albumin [1] does the source give for B1 here?
Answer: absence of binding to albumin

Question: And the “affinity to HER2” value [2]?
Answer: nanomolar affinity

Question: And the “cytotoxic induction (cell viability) as measure of internalization” value [3]?
Answer: dose-dependent cytotoxic induction

Question: What about the “cytotoxic induction (cell viability) as measure of internalization” value [4] of the same molecule?
Answer: no significant alterations
